The text below walks through data of US9850520B2, “Electrochemical detection of proteases using AC voltammetry on nanoelectrode arrays” (Kansas State University Research Foundation, priority 2013, dated 2017).

The test concerns the target T1, H2N—(CH2)4—CO-(SEQ ID NO:1)-NH—CH2-Fc (Homo sapiens, UniProt Q99538).
T1 construct: purchased R&D Systems Inc. (Minneapolis, Minn.)
T1 sequence (Q99538 18-323 limits assumed): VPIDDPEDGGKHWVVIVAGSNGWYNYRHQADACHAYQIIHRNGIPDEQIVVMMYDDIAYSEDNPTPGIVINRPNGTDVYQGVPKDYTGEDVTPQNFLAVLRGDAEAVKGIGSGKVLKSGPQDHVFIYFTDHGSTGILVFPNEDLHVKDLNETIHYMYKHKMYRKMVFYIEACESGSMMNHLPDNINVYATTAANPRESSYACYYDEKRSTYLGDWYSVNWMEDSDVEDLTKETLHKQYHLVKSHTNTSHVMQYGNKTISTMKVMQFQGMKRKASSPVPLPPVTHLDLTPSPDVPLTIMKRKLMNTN
The test is described as follows: ACV proteolysis kinetics of legumain on Fc-tetrapeptide immobilized on VACNF NEA. The format is biochemical. The text has this:
In the protease study, a tetrapeptide H2N—(CH2)4—CO-(SEQ ID NO:1)-NH—CH2-Fc is covalently attached to the exposed tip of a VACNF NEA as shown in FIG. 2. Fc provides reliable redox signals at 0.25 V vs. Ag/AgCl (3M KCl) in ACV measurements. As shown in later sections, the unique structure of VACNF NEA enables the enhanced ACV signal at over 1750 Hz AC frequency. Upon being supplied with legumain (a cancer related protease), the peptide is cleaved at the site between Asn and Leu. As a result, the Fc moiety is released from the electrode surface into bulk solution, causing the redox signal to decrease. The kinetic of the enzymatic reaction at the electrode surface can be monitored by continuously repeated ACV measurements. The advantage of this method is that the Fc label provides a characteristic redox signal which can be easily separated from the nonFaradaic background and other redox signals. However, the mechanism becomes complicated for enzymes requiring much longer peptide sequences for specific recognition. The Fc signal involves electron transfer between Fc molecule and the electrode surface, which is highly sensitive to the Fc surface distance. This may vary in a large range depending on the molecular packing of the long peptides on the electrode surface.
For protease analysis, the tetrapeptide H2N—(CH2)4—CO-(SEQ ID NO:1)-NHCH2-Fc was covalently linked to the VACNF NEA by forming amide bond facilitated by EDC and sulfo-NHS. In order to stabilize the electronic signal, the electrode surface was reacted with 6-amino-1-hexanol to fill the remaining —COOH sites. […]
The electrochemical measurements were performed in a TEFLON cell with a total volume of 250 μL for legumain experiments and 120 μL for kinase/phosphatase experiments. […] The average AC current was measured as the potential was swept from −0.05 to +0.65 V at 10 mV/s scan rate using a staircase waveform. […]
The change in peak current (ip,acv) during continuously repeated ACV measurements with Fc-linked tetrapeptide immobilized on a VACNF NEA was measured. […]

[1] abbreviates: Example 4, [E0]=80.1 nM legumain.

B1: legumain: Recombinant human legumain/asparaginyl endopeptidase (molecular weight 49 kDa) from R&D Systems (protein, UniProt Q99538 18-323, looked up)
Legumain: T1 sequence (Q99538 18-323 limits assumed)
Take B1: the “time constant of exponential decay” value (Example 1, [E0]=773 nM legumain, f 1750 Hz, V0 150 mV) stood at 1076 s. In addition, under setting [1], the “slope of reaction rate vi vs Γsurf” value stood at 0.00063 s⁻¹ and the “time constant of exponential decay” value amounted to 1101 s.
